# T1: human IL-11 (human, UniProt P20809 22-199)
# T1 construct: Invigate recombinant protein; biotinylated when immobilized in the Di-complex ELISA; also called hIL11; hIL-11
# T1 sequence: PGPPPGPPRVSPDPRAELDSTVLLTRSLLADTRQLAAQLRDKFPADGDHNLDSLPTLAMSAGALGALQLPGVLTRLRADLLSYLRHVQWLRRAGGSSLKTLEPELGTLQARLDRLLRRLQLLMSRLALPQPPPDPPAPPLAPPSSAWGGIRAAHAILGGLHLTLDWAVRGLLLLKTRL
# T2: rat IL-11 (rat, UniProt Q99MF5 22-199)
# T2 construct: Invigate recombinant protein; also called rIL11
# T2 sequence: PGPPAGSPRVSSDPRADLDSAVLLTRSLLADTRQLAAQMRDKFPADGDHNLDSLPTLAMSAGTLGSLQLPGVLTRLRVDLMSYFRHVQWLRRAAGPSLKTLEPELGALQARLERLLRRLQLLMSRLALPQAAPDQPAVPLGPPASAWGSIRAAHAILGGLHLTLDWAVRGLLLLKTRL
# T3: cynomolgus IL-11 (cynomolgus, UniProt P20808 22-199)
# T3 construct: Invigate recombinant protein; also called cIL11; Macaca IL-11
# T3 sequence: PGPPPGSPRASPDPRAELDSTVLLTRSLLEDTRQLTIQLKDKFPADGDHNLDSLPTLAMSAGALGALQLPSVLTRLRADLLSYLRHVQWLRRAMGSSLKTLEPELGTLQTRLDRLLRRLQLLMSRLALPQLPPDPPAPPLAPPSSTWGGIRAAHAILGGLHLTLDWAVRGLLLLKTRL
# B1: TPP-18068 (antibody, mouse IgG1)
# heavy: EVQLLESGGGLVQPGGSLRLSCAASGFTFSSYGMHWVRQAPGKGLEWVSVISYDGSYKYYADSVKGRFTISRDNSKNTLYLQMNSLRAEDTAVYYCAAGVPDYWGQGTLVTVSSAKTTPPSVYPLAPGSAAQTNSMVTLGCLVKGYFPEPVTVTWNSGSLSSGVHTFPAVLQSDLYTLSSSVTVPSSTWPSETVTCNVAHPASSTKVDKKIVPRDCGCKPCICTVPEVSSVFIFPPKPKDVLTITLTPKVTCVVVDISKDDPEVQFSWFVDDVEVHTAQTQPREEQFNSTFRSVSELPIMHQDWLNGKEFKCRVNSAAFPAPIEKTISKTKGRPKAPQVYTIPPPKEQMAKDKVSLTCMITDFFPEDITVEWQWNGQPAENYKNTQPIMDTDGSYFVYSKLNVQKSNWEAGNTFTCSVLHEGLHNHHTEKSLSHSPGK
# light: QSVLTQPPSASGTPGQRVTISCTGSSSNIGAGYDVHWYQQLPGTAPKLLIYSNNERPSGVPDRFSGSKSGTSASLAISGLRSEDEADYYCAAWDDSLNGPVFGGGTKLTVLGQPKSSPSVTLFPPSSEELETNKATLVCTITDFYPGVVTVDWKVDGTPVTQGMETTQPSKQSNNKYMASSYLTLTARAWERHSSYSCQVTHEGHTVEKSLSRADCS
# notes: mIgG1, Lambda
# B2: TPP-18087 (antibody, mouse IgG1, V domains shown)
# VH: EVQLLESGGGLVQPGGSLRLSCAASGFTFSHYDMNWLRQAPGKGLEWVGVISYDGSNKFYADFVKGRFTISRDNSKNTLYLQMNSLRAEDTAVYYCARTPGSHFDYWGQGTLVTVSS
# VL: QSVLTQPPSASGTPGQRVTISCSGSSSNIGNNAVNWYQQLPGTAPKLLIYYDDLLPSGVPDRFSGSKSGTSASLAISGLRSEDEADYYCSAWDDSLNGVVFGGGTKLTVLG
# notes: mIgG1, Lambda
# B3: TPP-29697 (bispecific antibody, IgG1)
# chain 1: QVQLVESGGGVVQPGRSLRLSCAASGFTFSHYDMHWVRQAPGKGLEWVAVISYHGSVKFYADSVKGRFTISRDNSKNTLYLQMNSLRAEDTAVYYCARTPGFHFDYWGQGTLVTVSSGGGGSGGGGSGGGGSQSVLTQPPSASGTPGQRVTISCSGSSSNIGSNYVSWYQQLPGTAPKLLIYYDDLRPSGVPDRFSGSKSGTSASLAISGLRSEDEADYYCSAWDDSLSGVVFGGGTKLTVLGGGGSGGGGSGGGGSGVECPPCPAPPVAGPSVFLFPPKPKDTLMISRTPEVTCVVVGVSHEDPEVKFNWYVDGVEVHNAKTKPREEQYNSTYRVVSVLTVLHQDWLNGKEYKCKVSNKQLPSPIEKTISKAKGQPREPQVYTLPPCRDELTKNQVSLWCLVKGFYPSDIAVEWESNGQPENNYKTTPPVLDSDGSFFLYSKLTVDKSRWQQGNVFSCSVMHEALHNHYTQKSLSLSPGK
# chain 2: EVQLLESGGGLVQPGGSLRLSCAASGFTFSSYGMHWVRQAPGKGLEWVAVISYDGSYKYYADSVKGRFTISRDNSKNTLYLQMNSLRAEDTAVYYCAAGVPDYWGQGTLVTVSSGGGGSGGGGSGGGGSQSVLTQPPSASGTPGQRVTISCSGSSSNIGSDYDVHWYQQLPGTAPKLLIYSNEERPSGVPDRFSGSKSGTSASLAISGLRSEDEADYYCSAWDSSLSGPVFGGGTKLTVLGGGGSGGGGSGGGGSGVECPPCPAPPVAGPSVFLFPPKPKDTLMISRTPEVTCVVVGVSHEDPEVKFNWYVDGVEVHNAKTKPREEQYNSTYRVVSVLTVLHQDWLNGKEYKCKVSNKQLPSPIEKTISKAKGQPREPQVCTLPPSRDELTKNQVSLSCAVKGFYPSDIAVEWESNGQPENNYKTTPPVLDSDGSFFLVSKLTVDKSRWQQGNVFSCSVMHEALHNHYTQKSLSLSPGK
# notes: scFv-kih-hIgG1 with Fc-silencing mutations; bispecific comprising CDRs of TPP-29528 and TPP-29519
# Experiments:
# [1] = target: T1, human IL-11; assay: Tri-complex ELISA, hIL-11 + mIL-11Ra-Fc + hgp130-Fc, inhibition of complex formation; Tri-complex ELISA (IL-11/IL-11Ra/gp130 formation)
# Method: In the Tri-complex ELISA format IL-11 antibodies are tested for their ability to inhibit the formation of a complex consisting of murine or human gp130-Fc fusion protein, with murine or human IL-11, and a murine IL11RA-Fc fusion protein. The assay format was adapted according to FIG. 18 (a, b), depending on whether murine or human IL-11 IgG antibodies were tested.
# The assay was performed using High Binding microtiter plates (Greiner, #781077). In a first step, 25 μl of goat anti human IgG (Sigma, #12136), diluted 1:1000 in coating buffer (Candor, #121125) was coated on the plate at 4° C. overnight. Next day, the plate was washed one time with 50 μl PBST and then blocked with 50 μl SmartBlock (Candor, #113125) for one hour at room temperature (RT). […] After three additional washes of the coated and blocked microtiter plate with PBS-T, 25 μl of each mixture were added and the assay plate was incubated for one hour at room temperature. After three additional washes, anti-mouse-gp130 biotinylated antibody (R&D, #BAF468) or anti-human gp130 biotinylated antibody (R&D, #BAF228), both 1:1000 in 10% SmartBlock PBS-T, was added and incubated for 1 hour at RT. After three additional washes, a Streptavidin-Peroxidase conjugate (Sigma, #S5512) 1:1000 in SmartBlock PBS-T was added and incubated for one hour at room temperature. […] Then, the fluorescence was measured with a plate reader at 535/595 nm. […]
# [2] = target: T2, rat IL-11; assay: SPR (Biacore), 25 C, antibody captured via anti-Fc, IL-11 as analyte, determined in steady state; SPR at 25 C, determined in steady state
# Method: (§1) To assess the binding kinetics and affinity of anti-IL-11 bispecific antibodies as well as their species cross-reactivity profile, binding assays were conducted using surface plasmon resonance (SPR). […] Antibodies were captured either via anti-human Fc IgGs (“Human antibody capture kit”, Order No. BR100839, Cytiva) or via anti-mouse Fc IgGs (“Mouse antibody capture kit, Order No. BR100383, Cytiva) covalently amine coupled to a Series S CM5 sensor chip (Cytiva) depending on the isotype. The amine coupling was carried out according to the manufacturer's instructions using 1-ethyl-3-(3-dimethylaminopropyl) carbodiimide hydrochloride (EDC), N-hydroxysuccinimide (NHS) and ethanolamine HCl, pH 8.5 (“Amine Coupling Kit” BR-1000-50, Cytiva.). Human, mouse, cynomolgus or rat IL-11 was used as analyte at several dilutions within the concentration range from 0.05-200 nM. For binding assays with only one concentration 200 nM IL-11 was used. The sensor surface was regenerated with glycine pH 1.7 after each antigen injection. Obtained sensorgrams were double referenced (subtraction of reference flow cell signal and buffer injection) and were fitted to a 1:1 Langmuir binding model to derive kinetic data using the Biacore T200 Evaluation software or the Biacore Insight software.
# (§2) If no value is reported, there was either no binding or very low binding and multiphasic binding behavior.
# [3] = target: T3, cynomolgus IL-11; assay: as above
# Method: as §1, §2
# [4] = target: T1, human IL-11; assay: as above
# Method: as §1, §2
# [5] = target: T1, human IL-11; assay: Di-complex ELISA, murine IL11RA-Fc binding to immobilized hIL-11, competition
binder,measurement,setting,value
B1,IC50,[1],1700 nM
B2,Kd,[2],34 nM
same,Kd,[3],56 nM
same,Kd,[4],13 nM
B3,IC50,[5],1.6 nM

# Source: patent US20240317847A1 (Bayer, published 2024)
